Experimental data as given in patent publication US20140072613A1, “Compositions and Methods for Treating Cutaneous Scarring” (priority 2012, published 2014).

Experiments:
Test in all cases: biochemical
Type in all cases: biochemical
266 human kinases [1] = molecular target: 266 human kinases (Homo sapiens, UniProt Q9H1R3); conditions: MLCK(h); 100 μM
In short: (§1)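 Kinase phosphorylates cationic substrate with radiolabelled ATP phosphate; substrate retained on anionic filter membrane; scintillation count; % of 100% activity control.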

266 human kinases [2] = molecular target: 266 human kinases (Homo sapiens, UniProt O96017); conditions: CHK2(h); 100 μM
Chain of 266 human kinases (Homo sapiens, UniProt O96017) (O96017 whole entry): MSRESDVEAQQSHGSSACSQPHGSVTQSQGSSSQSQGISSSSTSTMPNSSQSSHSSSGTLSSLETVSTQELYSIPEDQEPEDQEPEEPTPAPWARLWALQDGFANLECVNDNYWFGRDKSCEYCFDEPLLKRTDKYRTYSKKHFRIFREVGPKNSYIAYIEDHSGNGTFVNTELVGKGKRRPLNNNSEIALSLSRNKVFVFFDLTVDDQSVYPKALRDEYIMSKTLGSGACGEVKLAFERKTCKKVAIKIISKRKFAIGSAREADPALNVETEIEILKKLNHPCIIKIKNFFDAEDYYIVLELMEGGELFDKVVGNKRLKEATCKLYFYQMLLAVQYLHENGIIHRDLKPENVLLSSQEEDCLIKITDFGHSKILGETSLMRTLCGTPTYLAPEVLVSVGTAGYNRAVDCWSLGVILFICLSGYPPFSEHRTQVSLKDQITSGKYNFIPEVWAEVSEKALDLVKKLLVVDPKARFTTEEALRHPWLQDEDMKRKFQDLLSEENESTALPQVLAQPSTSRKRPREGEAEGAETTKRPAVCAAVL
In short: as §1

266 human kinases [3] = molecular target: 266 human kinases (Homo sapiens, UniProt P28482); conditions: MAPK2(h); 100 μM
In short: as §1

266 human kinases [4] = molecular target: T1, 266 human kinases (Homo sapiens, UniProt P29320); conditions: EphA3(h); 100 μM
T1 sequence (P29320 21-983): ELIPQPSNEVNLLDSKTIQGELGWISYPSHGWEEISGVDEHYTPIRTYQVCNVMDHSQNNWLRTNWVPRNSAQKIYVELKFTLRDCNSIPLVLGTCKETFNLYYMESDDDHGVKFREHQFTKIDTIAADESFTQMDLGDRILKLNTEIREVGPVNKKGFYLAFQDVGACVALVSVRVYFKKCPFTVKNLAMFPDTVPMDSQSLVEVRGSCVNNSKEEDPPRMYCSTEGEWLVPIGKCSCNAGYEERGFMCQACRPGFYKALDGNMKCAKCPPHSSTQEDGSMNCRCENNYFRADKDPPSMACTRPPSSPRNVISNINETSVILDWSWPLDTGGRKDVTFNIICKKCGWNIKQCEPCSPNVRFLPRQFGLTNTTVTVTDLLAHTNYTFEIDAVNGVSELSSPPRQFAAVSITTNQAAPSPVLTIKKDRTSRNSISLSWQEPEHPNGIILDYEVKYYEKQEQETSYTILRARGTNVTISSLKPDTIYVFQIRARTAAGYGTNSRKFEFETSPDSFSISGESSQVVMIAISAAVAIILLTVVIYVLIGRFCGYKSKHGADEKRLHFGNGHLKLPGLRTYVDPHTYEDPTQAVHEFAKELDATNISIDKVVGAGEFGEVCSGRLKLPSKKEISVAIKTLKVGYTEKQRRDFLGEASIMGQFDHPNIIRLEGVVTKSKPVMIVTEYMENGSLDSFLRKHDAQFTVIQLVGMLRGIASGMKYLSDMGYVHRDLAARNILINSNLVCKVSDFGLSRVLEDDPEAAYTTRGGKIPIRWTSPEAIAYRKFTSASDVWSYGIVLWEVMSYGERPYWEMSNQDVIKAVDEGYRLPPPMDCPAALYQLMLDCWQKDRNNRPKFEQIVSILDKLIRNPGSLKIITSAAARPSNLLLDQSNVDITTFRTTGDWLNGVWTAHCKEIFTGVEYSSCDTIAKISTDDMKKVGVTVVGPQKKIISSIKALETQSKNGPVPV
In short: as §1

266 human kinases [5] = molecular target: 266 human kinases (Homo sapiens, UniProt P00519, Q252H); conditions: Abl(Q252H)(h); 100 μM
In short: as §1

266 human kinases [6] = molecular target: 266 human kinases (Homo sapiens, UniProt Q00526); conditions: CDK3/cyclinE(h); 100 μM
Chain of 266 human kinases (Homo sapiens, UniProt Q00526) (Q00526 whole entry): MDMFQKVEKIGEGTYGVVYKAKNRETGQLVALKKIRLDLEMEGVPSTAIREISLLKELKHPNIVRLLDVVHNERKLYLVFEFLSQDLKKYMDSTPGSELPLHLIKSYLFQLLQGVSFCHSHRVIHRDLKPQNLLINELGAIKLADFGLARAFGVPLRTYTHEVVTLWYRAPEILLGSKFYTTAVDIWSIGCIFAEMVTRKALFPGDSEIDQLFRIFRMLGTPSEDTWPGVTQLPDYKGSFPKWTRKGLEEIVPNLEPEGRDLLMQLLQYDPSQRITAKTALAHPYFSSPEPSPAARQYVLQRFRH
In short: as §1

266 human kinases [7] = molecular target: 266 human kinases (Homo sapiens, UniProt P00519, Y253F); conditions: Abl(Y253F)(h); 100 μM
In short: as §1

266 human kinases [8] = molecular target: 266 human kinases (Homo sapiens, UniProt Q9HBH9); conditions: Mnk2(h); 100 μM
Chain of 266 human kinases (Homo sapiens, UniProt Q9HBH9) (Q9HBH9 whole entry): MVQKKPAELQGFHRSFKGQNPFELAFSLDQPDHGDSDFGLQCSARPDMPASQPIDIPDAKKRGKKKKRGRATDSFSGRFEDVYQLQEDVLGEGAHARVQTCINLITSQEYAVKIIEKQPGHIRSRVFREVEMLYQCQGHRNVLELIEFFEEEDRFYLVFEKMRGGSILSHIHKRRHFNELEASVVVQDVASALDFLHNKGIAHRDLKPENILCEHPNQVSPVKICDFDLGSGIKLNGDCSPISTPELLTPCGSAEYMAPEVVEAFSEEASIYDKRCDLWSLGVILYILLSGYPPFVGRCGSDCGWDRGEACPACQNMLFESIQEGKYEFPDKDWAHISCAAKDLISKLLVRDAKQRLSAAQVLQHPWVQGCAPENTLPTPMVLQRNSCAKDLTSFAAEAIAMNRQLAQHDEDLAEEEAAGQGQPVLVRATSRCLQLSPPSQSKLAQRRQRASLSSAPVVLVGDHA
In short: as §1

266 human kinases [9] = molecular target: 266 human kinases (Homo sapiens, UniProt P53355); conditions: DAPK1(h); 100 μM
Chain of 266 human kinases (Homo sapiens, UniProt P53355) (P53355 whole entry): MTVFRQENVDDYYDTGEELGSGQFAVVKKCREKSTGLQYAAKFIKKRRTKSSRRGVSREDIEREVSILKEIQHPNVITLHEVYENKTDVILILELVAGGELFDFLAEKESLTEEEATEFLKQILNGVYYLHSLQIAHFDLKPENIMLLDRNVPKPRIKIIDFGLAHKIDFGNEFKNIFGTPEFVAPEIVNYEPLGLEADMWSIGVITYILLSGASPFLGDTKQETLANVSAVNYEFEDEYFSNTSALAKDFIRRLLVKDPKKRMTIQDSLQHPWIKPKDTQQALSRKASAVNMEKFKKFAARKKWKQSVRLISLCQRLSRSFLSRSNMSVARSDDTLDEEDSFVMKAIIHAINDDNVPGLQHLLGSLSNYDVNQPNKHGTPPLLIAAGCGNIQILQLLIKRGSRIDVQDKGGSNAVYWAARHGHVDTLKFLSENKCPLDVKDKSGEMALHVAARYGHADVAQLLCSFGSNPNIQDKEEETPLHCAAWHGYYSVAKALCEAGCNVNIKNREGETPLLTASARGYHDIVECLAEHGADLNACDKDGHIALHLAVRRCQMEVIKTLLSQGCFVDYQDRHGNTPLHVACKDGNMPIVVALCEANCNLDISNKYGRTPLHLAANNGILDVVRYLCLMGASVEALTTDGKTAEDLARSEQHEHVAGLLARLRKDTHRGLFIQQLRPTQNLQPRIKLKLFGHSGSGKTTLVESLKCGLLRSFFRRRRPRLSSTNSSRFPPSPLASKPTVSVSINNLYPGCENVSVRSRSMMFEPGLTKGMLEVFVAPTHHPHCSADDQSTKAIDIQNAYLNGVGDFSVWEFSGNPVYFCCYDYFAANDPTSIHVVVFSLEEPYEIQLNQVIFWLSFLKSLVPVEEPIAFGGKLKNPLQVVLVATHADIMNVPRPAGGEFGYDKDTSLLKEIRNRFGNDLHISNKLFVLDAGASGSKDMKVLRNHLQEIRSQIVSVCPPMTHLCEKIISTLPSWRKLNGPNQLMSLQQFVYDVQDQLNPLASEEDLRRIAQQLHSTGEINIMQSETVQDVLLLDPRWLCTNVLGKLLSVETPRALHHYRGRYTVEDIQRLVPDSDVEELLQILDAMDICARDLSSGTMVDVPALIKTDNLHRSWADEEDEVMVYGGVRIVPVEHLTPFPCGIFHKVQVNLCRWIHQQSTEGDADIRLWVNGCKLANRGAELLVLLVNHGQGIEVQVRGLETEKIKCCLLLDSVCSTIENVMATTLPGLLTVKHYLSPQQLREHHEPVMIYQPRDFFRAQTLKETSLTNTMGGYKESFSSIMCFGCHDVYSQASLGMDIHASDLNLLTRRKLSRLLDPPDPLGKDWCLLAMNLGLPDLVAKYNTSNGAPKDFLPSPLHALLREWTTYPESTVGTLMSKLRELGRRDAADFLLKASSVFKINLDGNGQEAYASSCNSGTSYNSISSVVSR
In short: as §1

266 human kinases [10] = molecular target: 266 human kinases (Homo sapiens, UniProt Q9P0L2); conditions: MARK1(h); 100 μM
In short: as §1

266 human kinases [11] = molecular target: 266 human kinases (Homo sapiens, UniProt Q15349); conditions: Rsk3(h); 100 μM
Chain of 266 human kinases (Homo sapiens, UniProt Q15349) (Q15349 whole entry): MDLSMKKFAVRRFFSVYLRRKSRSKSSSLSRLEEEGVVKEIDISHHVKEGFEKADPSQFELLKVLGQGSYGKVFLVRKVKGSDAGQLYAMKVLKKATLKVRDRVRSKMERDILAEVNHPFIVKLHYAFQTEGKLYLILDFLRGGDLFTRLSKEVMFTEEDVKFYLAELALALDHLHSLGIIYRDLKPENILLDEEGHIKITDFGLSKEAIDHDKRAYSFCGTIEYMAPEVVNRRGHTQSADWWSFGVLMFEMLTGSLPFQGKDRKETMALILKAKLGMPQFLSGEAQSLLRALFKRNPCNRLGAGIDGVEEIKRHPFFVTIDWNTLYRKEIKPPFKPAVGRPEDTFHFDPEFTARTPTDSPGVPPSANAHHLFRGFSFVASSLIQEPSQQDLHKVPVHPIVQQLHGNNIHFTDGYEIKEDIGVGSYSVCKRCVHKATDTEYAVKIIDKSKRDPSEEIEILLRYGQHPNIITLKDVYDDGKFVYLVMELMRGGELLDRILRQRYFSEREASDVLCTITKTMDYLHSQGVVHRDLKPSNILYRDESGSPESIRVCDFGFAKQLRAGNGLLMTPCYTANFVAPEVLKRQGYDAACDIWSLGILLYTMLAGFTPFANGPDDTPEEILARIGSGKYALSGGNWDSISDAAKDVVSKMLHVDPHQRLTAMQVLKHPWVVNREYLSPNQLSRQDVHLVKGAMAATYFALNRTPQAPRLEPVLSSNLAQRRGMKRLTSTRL
In short: as §1

266 human kinases [12] = molecular target: 266 human kinases (Homo sapiens, UniProt Q9NYY3); conditions: Snk(h); 100 μM
In short: as §1

266 human kinases [13] = molecular target: 266 human kinases (Homo sapiens, UniProt P10721, V654A); conditions: cKit(V654A)(h); 100 μM
In short: as §1

266 human kinases [14] = molecular target: 266 human kinases (Homo sapiens, UniProt Q9Y243); conditions: PKBγ(h); 100 μM
Chain of 266 human kinases (Homo sapiens, UniProt Q9Y243) (Q9Y243 whole entry): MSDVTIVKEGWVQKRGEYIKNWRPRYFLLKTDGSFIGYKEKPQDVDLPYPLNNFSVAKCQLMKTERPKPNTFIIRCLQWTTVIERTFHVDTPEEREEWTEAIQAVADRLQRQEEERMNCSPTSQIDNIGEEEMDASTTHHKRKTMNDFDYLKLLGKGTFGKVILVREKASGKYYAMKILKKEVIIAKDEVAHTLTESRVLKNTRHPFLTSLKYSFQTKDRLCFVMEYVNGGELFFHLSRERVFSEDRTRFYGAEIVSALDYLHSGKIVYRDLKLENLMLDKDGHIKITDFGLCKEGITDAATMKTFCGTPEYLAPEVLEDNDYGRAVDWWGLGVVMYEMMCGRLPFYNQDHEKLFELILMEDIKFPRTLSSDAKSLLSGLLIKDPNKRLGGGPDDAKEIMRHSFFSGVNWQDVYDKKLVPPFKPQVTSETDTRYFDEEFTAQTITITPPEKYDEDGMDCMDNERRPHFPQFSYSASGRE
In short: as §1

266 human kinases [15] = molecular target: 266 human kinases (Homo sapiens, UniProt Q9H2X6); conditions: HIPK2(h); 100 μM
In short: as §1

266 human kinases [16] = molecular target: 266 human kinases (Homo sapiens, UniProt P06493); conditions: CDK1/cyclinB(h); 100 μM
In short: as §1

266 human kinases [17] = molecular target: 266 human kinases (Homo sapiens, UniProt P53667); conditions: LIMK1(h); 100 μM
In short: as §1

266 human kinases [18] = molecular target: 266 human kinases (Homo sapiens, UniProt P24941); conditions: 100 μM
In short: as §1

266 human kinases [19] = molecular target: 266 human kinases (Homo sapiens, UniProt P00519); conditions: Abl(h); 100 μM
In short: as §1

266 human kinases [20] = molecular target: 266 human kinases (Homo sapiens, UniProt O14965); conditions: Aurora-A(h); 100 μM
Chain of 266 human kinases (Homo sapiens, UniProt O14965) (O14965 whole entry): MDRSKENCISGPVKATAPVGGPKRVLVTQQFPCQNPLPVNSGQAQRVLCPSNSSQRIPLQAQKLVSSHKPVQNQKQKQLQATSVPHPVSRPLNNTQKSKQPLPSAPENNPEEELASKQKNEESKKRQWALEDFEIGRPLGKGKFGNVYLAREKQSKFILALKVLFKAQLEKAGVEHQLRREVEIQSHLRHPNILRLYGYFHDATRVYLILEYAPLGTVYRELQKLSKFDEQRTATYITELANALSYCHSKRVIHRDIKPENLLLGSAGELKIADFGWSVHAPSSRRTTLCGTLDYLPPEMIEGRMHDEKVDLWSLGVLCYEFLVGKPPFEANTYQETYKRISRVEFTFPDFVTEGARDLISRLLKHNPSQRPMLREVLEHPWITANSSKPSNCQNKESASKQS
In short: as §1

266 human kinases [21] = molecular target: 266 human kinases (Homo sapiens, UniProt Q02763, R849W); conditions: Tie2(R849W)(h); 100 μM
In short: as §1

266 human kinases [22] = molecular target: 266 human kinases (Homo sapiens, UniProt P11362, V561M); conditions: FGFR1(V561M)(h); 100 μM
In short: as §1

Chain of 266 human kinases (Homo sapiens, UniProt Q9H1R3) (Q9H1R3 whole entry): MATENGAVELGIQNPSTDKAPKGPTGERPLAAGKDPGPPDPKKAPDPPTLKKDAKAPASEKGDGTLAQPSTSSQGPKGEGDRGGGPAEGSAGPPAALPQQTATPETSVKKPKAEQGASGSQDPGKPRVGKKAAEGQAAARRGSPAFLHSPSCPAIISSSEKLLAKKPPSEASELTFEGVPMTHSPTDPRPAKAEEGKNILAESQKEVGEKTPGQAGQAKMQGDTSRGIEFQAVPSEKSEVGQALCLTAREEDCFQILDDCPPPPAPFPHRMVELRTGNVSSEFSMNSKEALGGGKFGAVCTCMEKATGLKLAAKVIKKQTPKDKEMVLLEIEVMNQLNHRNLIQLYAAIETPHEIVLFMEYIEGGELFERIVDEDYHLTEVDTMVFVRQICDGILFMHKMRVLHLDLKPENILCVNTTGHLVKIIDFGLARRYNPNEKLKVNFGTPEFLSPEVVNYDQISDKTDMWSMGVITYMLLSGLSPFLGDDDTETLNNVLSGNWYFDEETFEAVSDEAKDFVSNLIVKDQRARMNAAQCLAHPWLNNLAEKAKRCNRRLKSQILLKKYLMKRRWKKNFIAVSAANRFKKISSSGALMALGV

## HRRIKAWLKKIKALARQLGVAA (mammal) [MMI-0500]
266 human kinases [1]
  % activity: 0%
266 human kinases [2]
  % activity: 13%
266 human kinases [3]
  % activity: 60%
266 human kinases [4]
  % activity: 33%
266 human kinases [5]
  % activity: 40%
266 human kinases [6]
  % activity: 8%
266 human kinases [7]
  % activity: 29%
266 human kinases [8]
  % activity: 6%
266 human kinases [9]
  % activity: 0%
266 human kinases [10]
  % activity: 110%
266 human kinases [11]
  % activity: 23%
266 human kinases [12]
  % activity: 122%
266 human kinases [13]
  % activity: 223%
266 human kinases [14]
  % activity: 20%
266 human kinases [15]
  % activity: 38%
266 human kinases [16]
  % activity: 57%
266 human kinases [17]
  % activity: 87%
266 human kinases [18]; CDK2/cyclinA(h)
  % activity: 87%
266 human kinases [18]; CDK2/cyclinE(h)
  % activity: 19%
266 human kinases [19]
  % activity: 16%
266 human kinases [20]
  % activity: 110%

## YARAAARQARAKALNRQLGVA (mammal) [MMI-0200]
266 human kinases [21]
  % activity: 89%
266 human kinases [22]
  % activity: 72%
